Experiment: label from the status in PepcDB records

Sequence | protein production
MVYRDDYFIRHSISVSAVIVRAWITHKYSGRDWNVKWEENLLHAVAKNYTLLQTIPPFERPFKDHQVCLEWNMGYIWNLRANRIPQCPLENDVVALLGFPYASSGENTGIVKKFPRFRNRELEATRRQRMDYPVFTVSLWLYLLHYCKANLCGILYFVDSNEMYGTPSVFLTEEGYLHIQMHLVKGEDLAVKTKFIIPLKEWFRLDISFNGGQIVVTTSIGQDLKSYHNQTISFREDFHYNDTAGYFIIGGSRYVAGIEGFFGPLKYYRLRSLHPAQIFNPLLEKQLAEQIKLYYERCAEVQEIVSVYASAAKHGGERQEACHLHNSYLDLQRRYGRPSMCRAFPWEKELKDKHPSLFQALLEMDLLTVPRNQNESVSEIGGKIFEKAVKRLSSIDGLHQISSIVPFLTDSSCCGYHKASYYLAVFYETGLNVPRDQLQGMLYSLVGGQGSERLSSMNLGYKHYQGIDNYPLDWELSYAYYSNIATKTPLDQHTLQGDQAYVETIRLKDDEILKVQTKEDGDVFMWLKHEATRGNAAAQQRLAQMLFWGQQGVAKNPEAAIEWYAKGALETEDPALIYDYAIVLFKGQGVKKNRRLALELMKKAASKGLHQAVNGLGWYYHKFKKNYAKAAKYWLKAEEMGNPDASYNLGVLHLDGIFPGVPGRNQTLAGEIFHKAAQGGHMEGTLWCSLYYITGNLETFPRDPEKAVVWAKHVAEKNGYLGHVIRKGLNAYLEGSWHEALLYYVLAAETGIEVSQTNLAHICEERPDLARRYLGVNCVWRYYNFSVFQIDAPSFAYLKMGDLYYYGHQNQSQDLELSVQMYAQAALDGDSQGFFNLALLIEEGTIIPHHILDFLEIDSTLHSNNISILQELYERCWSHSNEESFSPCSLAWLYLHLRLLWGAILHSALIYFLGTFLLSILIAWTVQYFQSVSASDPPPRPSQASPDTATSTASPAVTPAADASDQDQPTVTNNPEPRG | failed
SKIHNVGSPLKSQNHPDSRAIMYEETTYSKKKIIDFLSALEGFKVMCKIIGIMEEVADGFKSKILKQVISLQTKNPEGRFPDLTVELNRWDTAFDHEKARKTGLITPKAGFDSDYDQALADIRENEQSLLEYLEKQRNRIGCRTIVYWGIGRNRYQLEIPENFTTRNLPEEYELKSTKKGCKRYWTKTIEKKLANLINAEERRDVSLKDCMRRLFYNFDKNYKDWQSAVECIAVLDVLLCLANYSRGGDGPMCRPVILLPEDTPPFLELKGSRHPCITKTFFGDDFIPNDILIGCEEEEQENGKAYCVLVTGPNMGGKSTLMRQAGLLAVMAQMGCYVPAEVCRLTPIDRVFTRLGASDRIMSGESTFFVELSETASILMHATAHSLVLVDELGRGTATFDGTAIANAVVKELAETIKCRTLFSTHYHSLVEDYSQNVAVRLGHMACMVENECEDPSQETITFLYKFIKGACPKSYGFNAARLANLPEEVIQKGHRKAREFEKMNQSLRLFREVCLASERSTVDAEAVHKLLTLIKEL | failed
MEKYNSLSDFLKEFYIPTYVLSAETEEEEEEESRPTPASPVLVFINSKSGGQLGGELILTYRSLLNHNQVFDLDQETPDKVLRRIYLNLERLKDDDFARQIREKLKIIVAGGDGTAGWLLGVVCDLKLSHPPPIATVPLGTGNNLPFAFGWGKKNPGTDRTAVESFLEQVLKAKVMKIDNWHILMRMKTPKEGGSCDPVAPLELPHSLHAFHRVSPTDELNKEGCHTFRGGFWNYFSLGMDAQISYAFHSERKLHPEKFKNQLVNQSTYVKLGCTQGWFCASLFHPASRNIAQLAKVKIATRNGQWQDLHIPHSIRSIVCLNLPSFSGGLNPWGTPNPRKQRDRGLTPPFVDDGLIEVVGFRNAWHGLVLLAPNGHGTRLAQANRIRFEFHKGATDHTFMRMDGEPWKQPLPLDDETVMVEISHLGQVNMLATHDCRSRSVFDPSTPRHQDGAEDYDDNEDDSVAEGEEFRKFGAADTFKIPDEGEHSNKKGRASRRRNSNVHGWSHVL | not failed
MASFVESGWQYLVTHFSDFQLACIGSFLLHESVFFLSGLPFIFLERQGFLSKYKIQTKNNTPAAQGKCITRLLLYHFSVNLPLMLASYPVFRAMGMRSSFPLPSWKEVSAQILFYFIIEDFVFYWGHRILHSKWLYKNVHSVHHEYATPFGLTSEYAHPAEILFLGFATIVGPALTGPHLITLWLWMVLRVLETVEAHCGYHFPWSLSNFLPLYGGADFHDYHHRLLYTKSGNYSSTFVYMDWIFGTDKGYRRLKTLKENGDMKQT | failed
MSKIGRNDPCPCGSGKKYKQCCFHRATSAAATPDAEMLWRAGNAHLAGGALDMALSCYREAVRLRPGFAQAHYNLGVVFQQKGLLDEAAASFRSAISFNRDYAKAYNNLGYILATQGRLDESADCFNRAIAIEPGFAAAYHNLGTTLRHQGRLDETLAAFRTAHAINPHDPVFHSDLLMMLHYSDMDDETLFREHVRWGEQHAPAAASVPTHQCDRDPGRKLRIGYVSGDFGKHPVGYFLLPFLENHDRSQFEICCYSERGQRQEDDVTARIKGHADLWRRTIGLGDAAVAEMIRADGIDILVDLAGHTAHNRLRVFALKPAPVQVTWLGYPNTTGLRAMDYRITDAVADPPGSADALHTEQLIRLEQGFLCYTPPAGAPPVGEAPCLAGAGVTFGSFNNLAKVSPQVIDAWSAILGRVPGSRLMLKFKGFADETCRRRVSDAFGARGVSPDRLELVSFVENFNDHLALYNRLDLALDTFPYNGTATTCDALWMGVPVLTCCGTRHVARVGASILTSLGLPELITHSPEEYISAAAALAADPARLAALRRDMRPRLAASPLCDPTGFARRMETALRDIWRRWCSA | failed
MNDIVEFLKVFIPLFIVIDPFGSLVLFTSMTYNFNEGEKMRATKDAVVYGGIILVMFALAGQFIIYFFGISIEALEMAGGVILLLMAVEMIMEGNRPKTSGSEVTTDLDIGIVPFATPLLAGPGAISLVIILMKGPLIDKIFTFVSIGIIFLMVYIFFKEASIVSKFIGNKAMKAVSRIFGLLLAGFAIQYFIDAVTALFLVH | failed
MQEAPNTPTRPQAPPSAHLESPQPARTQQQSIQQMTPQSTTSSNNFLKDGAAGAVLEDQDIEEVLKALKTFDGGHVNPDTICEFFDEVWEEAAPAAPLPPAPPENVVDVPGAKPSCSGILVSGSNISQPNVIIKQEQRPWQESHAELEQQQHVISRRIEFLLRRMRKLQARAMCRHASEEVVGIMEWSARSSHKAPV | failed
MSDDDDIQYIKRQRTLHYGSLEESERKRQNAAASGAAATTTSGTTASSGAGTTTTGTGGQLEDIDSDEDYEESTKKTSNAKQAGAPPPTAATLANKIDDDYFDLEMEMERDKVALLEEFERKKRARQINVSTDDTEIKSNLRQLNEPICYFGEGPAERRRRLKELLAGLGENAINKRQYEDEERKQQQREQDQATWYHEGPDSLRIARLWLADYSLPRAKDRLVRAREALEVPSAARAGRMVEMQKKLQSLAPLCSQVGDTRPVSSAAFSEDSSLLLTSSWSGLCKLWSVPDCELKQTLRGHASYVGGVALRPGVKADEENVVAMASGGHDGAVKLWGFNNEESIADITGHMPHRVSKVAFHPSGRFLATACYDSSWRLWDLEQKTEVLHQEGHAKPVHCLSYHSDGSVLVTGGLDAFGRVWDLRTGRCIMFLEGHLGAVFGVDFSPNGFHIATGSQDNTCKIWDLRRRQPVYTIPAHTNLISDVKYQQECGSFLVTCSYDSTTKIWSNKTWQPLKTLQGHDNKVISVDIAPNSQYIATTSFDRTFKLWSPDS | failed
MKELPRGDLLSPKTEEKFKLTNKAKIFFRPYMDPPEMPSSEYPLWLCTGRVLEHWHSGTMTMRVPELYRAVPEALCYMHPEDAKKLGVKQNEAVWVESRRGKVKARLEHHHHHH | not failed
MAESPRRETLIGGAVVLLGVALLAATSINRHDASGQAGAYQVEAVFNRTDGIGIGSPVRLAGIPIGRIVGHKLDPEYRAIVTMRLDLPNELPDDTAAKIQTDGLLGSKYIELVSLGGGYGTIAPGGRLDYSQDSVIVEDLLVKIVAMAKIKRGLDPDIPAAEQQKAKAASHPQAPPPGGAGDPGDPFGGGAVAPPEVNPFAPGPFEDDPPPPEPGVFSPDPGRDGVSEPPPAQDTRHDMRTNTLNDTAGTAPGAVTLASLPAVQADVEEGR | failed
MEDERIKLLFKEKALEILMTIYYESLGGNDVYIQYIASKVNSPHSYVWLIIKKFEEAKMVECELEGRTKIIRLTDKGQKIAQQIKSIIDIMENDT | not failed
RAELRGVVRVAASEVVGAEVLPPLVARLRQACPNIVIELMLSNRFQDLLHREADIAVRMVAPQQEQLIARRLGRIELGLHATAAYLTRQGLPATLDDLASHALIGFDSATPLVRRALQAYPRFQREAFAMRTDSDLAQLSLIRAGA | failed
